Drawing on the supplement of paper PMC9732359, this text covers protein stability index for 26 sequences.

± gives the uncertainty stated by the source.

The nature of this data set: protein stability index of a GFP-peptide fusion (yeast GPS) (PSI 1-4); higher = more stable; sorted into four equal gates, so the index is relative within each strain. The essentials:
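Mid-log yeast cultures in leucine-free medium, carrying a pooled plasmid library, were sorted into four equal gates by their GFP/Cherry fluorescence ratio. Each plasmid expressed Cherry along with GFP fused upstream of a tiled 17-residue yeast protein peptide. Plasmids recovered from each gate were PCR-amplified and Illumina-sequenced, with reads assigned to strains by barcodes. The protein stability index was obtained by summing each gate's read frequency weighted by its gate number.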

As for YPVVEVERGRVGACTDE [RRP43], the protein stability index turned out to be 3.24 ± 0.1 (doa10∆), 2.8 ± 0.25 (pdr5∆), 3.16 ± 0.23 (san1∆) and 3.03 ± 0.091 (ubr1∆).
For SRKRNEEEDAKNPLFSY [RPL31A], the protein stability index was found to be 2.48 ± 0.078 (doa10∆), 2.91 ± 0.059 (pdr5∆), 2.58 ± 0.074 (san1∆) and 2.12 ± 0.043 (ubr1∆).
For SQTTTNDSKEESTTEAT [YLR335W/NUP2], the protein stability index reads like this: (doa10∆) 3.02 ± 0.19; (pdr5∆) 2.83 ± 0.21; (san1∆) 2.97 ± 0.21; (ubr1∆) 3.27 ± 0.079.
In the case of KTERVEDQKVVDKALLA [RPL6B], the protein stability index (doa10∆) came to 1.52 ± 0.17, the protein stability index (pdr5∆) turned out to be 1.43 ± 0.089, the protein stability index (san1∆) worked out at 1.38 ± 0.15 and the protein stability index (ubr1∆) stood at 1.19 ± 0.13.
NVIKTGIRIISLTYKKI [RPN3]: the protein stability index turned out to be 1.83 ± 0.1 (doa10∆), 2.25 ± 0.081 (pdr5∆), 1.99 ± 0.12 (san1∆) and 2.2 ± 0.042 (ubr1∆).
The matching figures for EKLSSEIENLDKELRKT [YIL149C/MLP2]: 3.12 ± 0.11, 3.21 ± 0.12, 3.12 ± 0.069 and 3 ± 0.11.
For the sequence NKKRPSSKKVFSSNLSY [YOR098C/NUP1], the protein stability index is 2.48 ± 0.073 (doa10∆), 2.4 ± 0.063 (pdr5∆), 2.08 ± 0.1 (san1∆) and 2.56 ± 0.05 (ubr1∆).
The matching figures for NVDRLYKLNVRSNDPQS [NUT2]: 3.22 ± 0.11, 3.2 ± 0.084, 3.27 ± 0.065 and 3.39 ± 0.089.
The matching figures for SRNNTLNVTPSKRPQLG [SIR4]: 2.96 ± 0.1, 2.97 ± 0.093, 2.8 ± 0.096 and 2.85 ± 0.073.
The matching figures for TLKYICAECSSKLSLSR [RPC10]: 2.46 ± 0.063, 2.51 ± 0.069, 2.7 ± 0.057 and 2.65 ± 0.056.
Turning to ISNGNLATGPNLTSEIE [YOR098C/NUP1], the protein stability index stood at 3.4 ± 0.096 (doa10∆), 3.39 ± 0.11 (pdr5∆), 3.17 ± 0.06 (san1∆) and 3.41 ± 0.091 (ubr1∆).
Regarding VFIRHRTPHEIQEANSV [RIP1], the protein stability index came to 2.24 ± 0.28 (pdr5∆) and 1.69 ± 0.17 (ubr1∆).
In turn, ANKEKKKAEKAARKAEK [RPL24A] displayed a protein stability index (doa10∆) of 3.27 ± 0.059, a protein stability index (pdr5∆) of 3.33 ± 0.065, a protein stability index (san1∆) of 3.38 ± 0.036 and a protein stability index (ubr1∆) of 3.48 ± 0.055.
The corresponding values for RVVYLKHLEDNTLLISG [RPL6A] are 2.63 ± 0.11, 2.62 ± 0.093, 1.81 ± 0.17 and 2.23 ± 0.059.
Consider LRDSLADKIVDEFPELK [NUT2], for which the protein stability index amounted to 2.76 ± 0.098 (doa10∆), 2.41 ± 0.069 (pdr5∆), 1.97 ± 0.23 (san1∆) and 1.44 ± 0.051 (ubr1∆).
As to YYLGQYYGCLENDHERG [CSN12], the protein stability index reads like this: (doa10∆) 2.68 ± 0.098; (pdr5∆) 2.85 ± 0.093; (san1∆) 2.84 ± 0.06; (ubr1∆) 3.06 ± 0.052.
Regarding KVPIGLILQRLKDLNLT [RGR1], the protein stability index reads like this: (doa10∆) 2.48 ± 0.1; (pdr5∆) 2.57 ± 0.09; (san1∆) 2.98 ± 0.074; (ubr1∆) 2.63 ± 0.053.
On to DSLNQLEIRNKICSSEM [RGR1], for which the protein stability index by setting is: (doa10∆) 2.24 ± 0.22; (pdr5∆) 3.11 ± 0.11; (san1∆) 2.65 ± 0.14; (ubr1∆) 2.61 ± 0.22.
For DVKCWSKFIEKFQDIVS [MED1], the protein stability index reads like this: (doa10∆) 1.83 ± 0.12; (pdr5∆) 2.62 ± 0.12; (san1∆) 2.09 ± 0.14; (ubr1∆) 1.89 ± 0.1.
The sequence DPRIAPLRGALATYGLT [FAS2] had a protein stability index (doa10∆) of 2.37 ± 0.1, a protein stability index (pdr5∆) of 2.51 ± 0.16, a protein stability index (san1∆) of 2.38 ± 0.13 and a protein stability index (ubr1∆) of 2.04 ± 0.056.
The matching figures for IEIDYTVRVDKASTYGE [SNF12]: 1.68 ± 0.08, 1.41 ± 0.067, 1.53 ± 0.16 and 1.39 ± 0.04.
The corresponding values for GVMLWKEFDETIFNLPK [FAS1] are 1.75 ± 0.073, 1.56 ± 0.12, 1.15 ± 0.21 and 2.81 ± 0.2.
The matching figures for ADLESFANNHFLNSNAV [COR1]: 2.63 ± 0.11, 2.87 ± 0.074, 2.99 ± 0.056 and 2.71 ± 0.082.
TKNNTQASGITAGAAAN [SSN3] gave a protein stability index (doa10∆) of 1.86 ± 0.094, a protein stability index (pdr5∆) of 2.08 ± 0.051, a protein stability index (san1∆) of 2.07 ± 0.11 and a protein stability index (ubr1∆) of 1.97 ± 0.062.
On to ERIINVGVIGPLHSGKT [SNU114], for which the protein stability index reads like this: (doa10∆) 2.87 ± 0.12; (pdr5∆) 2.57 ± 0.11; (ubr1∆) 2.94 ± 0.09.
GATVFVNHLLLFAREIA [DPB4]: the protein stability index is, setting by setting: (doa10∆) 1.94 ± 0.046; (pdr5∆) 1.9 ± 0.04; (san1∆) 1.41 ± 0.087; (ubr1∆) 1.72 ± 0.039.
